Reference: article PMC8181454

Molecular target: recombinant HPV16 E6 protein (human papillomavirus type 16) (UniProt P03126)
Assay: SPR

UniProt P03126, sequence (P03126 whole entry): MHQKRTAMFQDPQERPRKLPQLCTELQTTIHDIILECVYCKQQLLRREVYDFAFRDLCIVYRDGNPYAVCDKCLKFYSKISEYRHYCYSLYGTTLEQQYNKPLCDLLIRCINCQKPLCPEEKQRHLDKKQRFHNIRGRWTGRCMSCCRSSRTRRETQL

koff: 0.000886 s⁻¹
Substance: ZWT affibody (original affibody scaffold molecule, wild-type Z domain) (designed binder)
